Like-named read-outs stand apart in the source and are kept apart here.
Assay: In vivo pharmacokinetic (PK) studies in rats
Parameters: species or system Sprague-Dawley rats
Details: for level at time molar at 24 h: read-out: Rat PK C24; for AUC(0-inf): read-out: Rat PK AUC Total
Experimental: […] Blood samples were collected via jugular vein at different time points out to 72 hours. Blood samples were allowed to coagulate at room temperature (30-60 m) and then centrifuged (1500-2000) at 4° C. to obtain serum. After centrifugation serum samples were transferred to 96 well plates and stored at −80° C. until bioanalysis. Relaxin concentrations were measured from serum by ELISA.
Relaxin concentration-time profiles from individual animals were used for analysis. Pharmacokinetic parameters were calculated by non-compartmental methods using Phoenix WinNonlin (version 6.4) or Kinetica (version 5). Mean pharmacokinetic parameters Cmax, AUCinf, C24 and half-life were reported (Table 4). Table 4. In vivo PK data (abbreviations as in Table 3).

[1] = rats, SC dose 1.0 mg/kg, adjusted from 0.3 mpk
[2] = rat, male Sprague-Dawley rats, single SC dose 1.0 mg/kg, serum ELISA

| Compound | Rat PK AUC Total [1] | level at time molar at 24 h [1] | AUC(0-inf) [2] | level at time molar at 24 h [2] |
| --- | --- | --- | --- | --- |
| CC[C@H](C)[C@@H]1NC(=O)[C@H](C)NC(=O)[C@H]([C@@H](C)CC)NC(=O)[C@H](CCC(N)=O)NC(=O)[C@H](C)NC(=O)[C@H](CCCNC(=N)N)NC(=O)[C@H](C(C)C)NC(=O)[C@H](CC(C)C)NC(=O)[C@H](CCC(=O)O)NC(=O)[C@H](CCCNC(=N)N)NC(=O)CNC(=O)[C@@H](NC(=O)[C@H](CC(C)C)NC(=O)[C@H](CCCCN)NC(=O)[C@@H](NC(=O)[C@@H](NC(=O)[C@H](CCC(=O)O)NC(=O)[C@H](CCC(=O)O)NC(=O)[C@H](CCSC)NC(=O)[C@H](Cc2c[nH]c3ccccc23)NC(=O)[C@H](CO)NC(=O)[C@H](C)N)C(C)C)[C@@H](C)CC)CSSC[C@@H]2NC(=O)[C@@H](NC(=O)[C@H](CCCCN)NC(=O)[C@H](CC(N)=O)NC(=O)[C@H](C)NC(=O)[C@H](CC(C)C)NC(=O)[C@H](C)NC(=O)[C@H](CO)NC(=O)[C@H](Cc3ccc(O)cc3)NC(=O)[C@H](CC(C)C)NC(=O)[C@@H](N)Cc3ccc(C(C)=NOCCNC(=O)CNC(=O)CNC(=O)CNC(=O)CNC(=O)[C@H](CO)NC(=O)CC[C@H](NC(=O)CCCCCCCCCCCCCCC(=O)O)C(=O)O)cc3)CSSC[C@H](NC(=O)CNC(=O)[C@H](C(C)C)NC(=O)[C@H](Cc3c[nH]cn3)NC2=O)C(=O)N[C@@H]([C@@H](C)O)C(=O)N[C@@H](CCCCN)C(=O)N[C@@H](CCCNC(=N)N)C(=O)N[C@@H](CO)C(=O)N[C@@H](CC(C)C)C(=O)N[C@@H](C)C(=O)N[C@@H](CCCNC(=N)N)C(=O)N[C@@H](Cc2ccccc2)C(=O)N[C@H](C(=O)O)CSSC[C@@H](C(=O)NCC(=O)N[C@@H](CCSC)C(=O)N[C@@H](CO)C(=O)N[C@H](C(=O)N[C@@H](Cc2c[nH]c3ccccc23)C(=O)N[C@@H](CO)C(=O)O)[C@@H](C)O)NC1=O [AQ1-GGGGS-Glu^γ-C15-COOH] | 5.526 µM·h | 44 nM |  |  |
| CC[C@H](C)[C@@H]1NC(=O)[C@H](C)NC(=O)[C@H]([C@@H](C)CC)NC(=O)[C@H](CCC(N)=O)NC(=O)[C@H](C)NC(=O)[C@H](CCCNC(=N)N)NC(=O)[C@H](C(C)C)NC(=O)[C@H](CC(C)C)NC(=O)[C@H](CCC(=O)O)NC(=O)[C@H](CCCNC(=N)N)NC(=O)CNC(=O)[C@@H](NC(=O)[C@H](CC(C)C)NC(=O)[C@H](CCCCN)NC(=O)[C@@H](NC(=O)[C@@H](NC(=O)[C@H](CCC(=O)O)NC(=O)[C@H](CCC(=O)O)NC(=O)[C@H](CCSC)NC(=O)[C@H](Cc2c[nH]c3ccccc23)NC(=O)[C@H](CO)NC(=O)[C@H](C)N)C(C)C)[C@@H](C)CC)CSSC[C@@H]2NC(=O)[C@@H](NC(=O)[C@H](CCCCN)NC(=O)[C@H](CC(N)=O)NC(=O)[C@H](C)NC(=O)[C@H](CC(C)C)NC(=O)[C@H](C)NC(=O)[C@H](CO)NC(=O)[C@H](Cc3ccc(O)cc3)NC(=O)[C@H](CC(C)C)NC(=O)[C@@H](N)Cc3ccc(C(C)=NOCCNC(=O)CNC(=O)CNC(=O)CNC(=O)[C@H](CCCCN)NC(=O)[C@H](CCCCN)NC(=O)[C@H](CCCCN)NC(=O)CC[C@H](NC(=O)CCCCCCCCCCCCC(=O)O)C(=O)O)cc3)CSSC[C@H](NC(=O)CNC(=O)[C@H](C(C)C)NC(=O)[C@H](Cc3c[nH]cn3)NC2=O)C(=O)N[C@@H]([C@@H](C)O)C(=O)N[C@@H](CCCCN)C(=O)N[C@@H](CCCNC(=N)N)C(=O)N[C@@H](CO)C(=O)N[C@@H](CC(C)C)C(=O)N[C@@H](C)C(=O)N[C@@H](CCCNC(=N)N)C(=O)N[C@@H](Cc2ccccc2)C(=O)N[C@H](C(=O)O)CSSC[C@@H](C(=O)NCC(=O)N[C@@H](CCSC)C(=O)N[C@@H](CO)C(=O)N[C@H](C(=O)N[C@@H](Cc2c[nH]c3ccccc23)C(=O)N[C@@H](CO)C(=O)O)[C@@H](C)O)NC1=O [AQ1-GGGKKK-Glu^γ-C13-COOH] |  |  | 0.231 µM·h | 0.1 nM |
| CC[C@H](C)[C@@H]1NC(=O)[C@H](C)NC(=O)[C@H]([C@@H](C)CC)NC(=O)[C@H](CCC(N)=O)NC(=O)[C@H](C)NC(=O)[C@H](CCCNC(=N)N)NC(=O)[C@H](C(C)C)NC(=O)[C@H](CC(C)C)NC(=O)[C@H](CCC(=O)O)NC(=O)[C@H](CCCNC(=N)N)NC(=O)CNC(=O)[C@@H](NC(=O)[C@H](CC(C)C)NC(=O)[C@H](CCCCN)NC(=O)[C@@H](NC(=O)[C@@H](NC(=O)[C@H](CCC(=O)O)NC(=O)[C@H](CCC(=O)O)NC(=O)[C@H](CCSC)NC(=O)[C@H](Cc2c[nH]c3ccccc23)NC(=O)[C@H](CO)NC(=O)[C@H](C)N)C(C)C)[C@@H](C)CC)CSSC[C@@H]2NC(=O)[C@@H](NC(=O)[C@H](CCCCN)NC(=O)[C@H](CC(N)=O)NC(=O)[C@H](C)NC(=O)[C@H](CC(C)C)NC(=O)[C@H](C)NC(=O)[C@H](CO)NC(=O)[C@H](Cc3ccc(O)cc3)NC(=O)[C@H](CC(C)C)NC(=O)[C@@H](N)Cc3ccc(C(C)=NOCCNC(=O)[C@H](CCCCN)NC(=O)[C@H](CCCCN)NC(=O)CC[C@H](NC(=O)CCCCCCCCCCCCCCC(=O)O)C(=O)O)cc3)CSSC[C@H](NC(=O)CNC(=O)[C@H](C(C)C)NC(=O)[C@H](Cc3c[nH]cn3)NC2=O)C(=O)N[C@@H]([C@@H](C)O)C(=O)N[C@@H](CCCCN)C(=O)N[C@@H](CCCNC(=N)N)C(=O)N[C@@H](CO)C(=O)N[C@@H](CC(C)C)C(=O)N[C@@H](C)C(=O)N[C@@H](CCCNC(=N)N)C(=O)N[C@@H](Cc2ccccc2)C(=O)N[C@H](C(=O)O)CSSC[C@@H](C(=O)NCC(=O)N[C@@H](CCSC)C(=O)N[C@@H](CO)C(=O)N[C@H](C(=O)N[C@@H](Cc2c[nH]c3ccccc23)C(=O)N[C@@H](CO)C(=O)O)[C@@H](C)O)NC1=O [AQ1-KK-Glu^γ-C15-COOH] |  |  | 0.82 µM·h | 8.8 nM |
| CC[C@H](C)[C@@H]1NC(=O)[C@H](C)NC(=O)[C@H]([C@@H](C)CC)NC(=O)[C@H](CCC(N)=O)NC(=O)[C@H](C)NC(=O)[C@H](CCCNC(=N)N)NC(=O)[C@H](C(C)C)NC(=O)[C@H](CC(C)C)NC(=O)[C@H](CCC(=O)O)NC(=O)[C@H](CCCNC(=N)N)NC(=O)CNC(=O)[C@@H](NC(=O)[C@H](CC(C)C)NC(=O)[C@H](CCCCN)NC(=O)[C@@H](NC(=O)[C@@H](NC(=O)[C@H](CCC(=O)O)NC(=O)[C@H](CCC(=O)O)NC(=O)[C@H](CCSC)NC(=O)[C@H](Cc2c[nH]c3ccccc23)NC(=O)[C@H](CO)NC(=O)[C@H](C)N)C(C)C)[C@@H](C)CC)CSSC[C@@H]2NC(=O)[C@@H](NC(=O)[C@H](CCCCN)NC(=O)[C@H](CC(N)=O)NC(=O)[C@H](C)NC(=O)[C@H](CC(C)C)NC(=O)[C@H](C)NC(=O)[C@H](CO)NC(=O)[C@H](Cc3ccc(O)cc3)NC(=O)[C@H](CC(C)C)NC(=O)[C@@H](N)Cc3ccc(C(C)=NOCCNC(=O)[C@H](CCCCN)NC(=O)[C@H](CCCCN)NC(=O)[C@H](CCCCN)NC(=O)[C@H](CCCCN)NC(=O)[C@H](CCCCN)NC(=O)[C@H](CCCCN)NC(=O)CC[C@H](NC(=O)CCCCCCCCCCCCC(=O)O)C(=O)O)cc3)CSSC[C@H](NC(=O)CNC(=O)[C@H](C(C)C)NC(=O)[C@H](Cc3c[nH]cn3)NC2=O)C(=O)N[C@@H]([C@@H](C)O)C(=O)N[C@@H](CCCCN)C(=O)N[C@@H](CCCNC(=N)N)C(=O)N[C@@H](CO)C(=O)N[C@@H](CC(C)C)C(=O)N[C@@H](C)C(=O)N[C@@H](CCCNC(=N)N)C(=O)N[C@@H](Cc2ccccc2)C(=O)N[C@H](C(=O)O)CSSC[C@@H](C(=O)NCC(=O)N[C@@H](CCSC)C(=O)N[C@@H](CO)C(=O)N[C@H](C(=O)N[C@@H](Cc2c[nH]c3ccccc23)C(=O)N[C@@H](CO)C(=O)O)[C@@H](C)O)NC1=O [AQ1-KKKKKK-Glu^γ-C13-COOH] |  |  | 0.038 µM·h | 0.05 nM |
| CC[C@H](C)[C@@H]1NC(=O)[C@H](C)NC(=O)[C@H]([C@@H](C)CC)NC(=O)[C@H](CCC(N)=O)NC(=O)[C@H](C)NC(=O)[C@H](CCCNC(=N)N)NC(=O)[C@H](C(C)C)NC(=O)[C@H](CC(C)C)NC(=O)[C@H](CCC(=O)O)NC(=O)[C@H](CCCNC(=N)N)NC(=O)CNC(=O)[C@@H](NC(=O)[C@H](CC(C)C)NC(=O)[C@H](CCCCN)NC(=O)[C@@H](NC(=O)[C@@H](NC(=O)[C@H](CCC(=O)O)NC(=O)[C@H](CCC(=O)O)NC(=O)[C@H](CCSC)NC(=O)[C@H](Cc2c[nH]c3ccccc23)NC(=O)[C@H](CO)NC(=O)[C@H](C)N)C(C)C)[C@@H](C)CC)CSSC[C@@H]2NC(=O)[C@@H](NC(=O)[C@H](CCCCN)NC(=O)[C@H](CC(N)=O)NC(=O)[C@H](C)NC(=O)[C@H](CC(C)C)NC(=O)[C@H](C)NC(=O)[C@H](CO)NC(=O)[C@H](Cc3ccc(O)cc3)NC(=O)[C@H](CC(C)C)NC(=O)[C@@H](N)Cc3ccc(C(C)=NOCCNC(=O)[C@H](CCCCN)NC(=O)[C@H](CO)NC(=O)CNC(=O)CNC(=O)[C@H](CO)NC(=O)CNC(=O)CNC(=O)CC[C@H](NC(=O)CCCCCCCCCCCCC(=O)O)C(=O)O)cc3)CSSC[C@H](NC(=O)CNC(=O)[C@H](C(C)C)NC(=O)[C@H](Cc3c[nH]cn3)NC2=O)C(=O)N[C@@H]([C@@H](C)O)C(=O)N[C@@H](CCCCN)C(=O)N[C@@H](CCCNC(=N)N)C(=O)N[C@@H](CO)C(=O)N[C@@H](CC(C)C)C(=O)N[C@@H](C)C(=O)N[C@@H](CCCNC(=N)N)C(=O)N[C@@H](Cc2ccccc2)C(=O)N[C@H](C(=O)O)CSSC[C@@H](C(=O)NCC(=O)N[C@@H](CCSC)C(=O)N[C@@H](CO)C(=O)N[C@H](C(=O)N[C@@H](Cc2c[nH]c3ccccc23)C(=O)N[C@@H](CO)C(=O)O)[C@@H](C)O)NC1=O [AQ1-KSGGSGG-Glu^γ-C13-COOH] |  |  | 0.814 µM·h | 0.73 nM |
